Experimental findings from US20260049134A1 (UNIVERSITY OF FLORIDA RESEARCH FOUNDATION, published 2026) are described below.

For assay [1], the target named is T1, DCC.
T1 construct: coated protein in the ELISA; also called DCC-His (R&D Systems)
T1 chain: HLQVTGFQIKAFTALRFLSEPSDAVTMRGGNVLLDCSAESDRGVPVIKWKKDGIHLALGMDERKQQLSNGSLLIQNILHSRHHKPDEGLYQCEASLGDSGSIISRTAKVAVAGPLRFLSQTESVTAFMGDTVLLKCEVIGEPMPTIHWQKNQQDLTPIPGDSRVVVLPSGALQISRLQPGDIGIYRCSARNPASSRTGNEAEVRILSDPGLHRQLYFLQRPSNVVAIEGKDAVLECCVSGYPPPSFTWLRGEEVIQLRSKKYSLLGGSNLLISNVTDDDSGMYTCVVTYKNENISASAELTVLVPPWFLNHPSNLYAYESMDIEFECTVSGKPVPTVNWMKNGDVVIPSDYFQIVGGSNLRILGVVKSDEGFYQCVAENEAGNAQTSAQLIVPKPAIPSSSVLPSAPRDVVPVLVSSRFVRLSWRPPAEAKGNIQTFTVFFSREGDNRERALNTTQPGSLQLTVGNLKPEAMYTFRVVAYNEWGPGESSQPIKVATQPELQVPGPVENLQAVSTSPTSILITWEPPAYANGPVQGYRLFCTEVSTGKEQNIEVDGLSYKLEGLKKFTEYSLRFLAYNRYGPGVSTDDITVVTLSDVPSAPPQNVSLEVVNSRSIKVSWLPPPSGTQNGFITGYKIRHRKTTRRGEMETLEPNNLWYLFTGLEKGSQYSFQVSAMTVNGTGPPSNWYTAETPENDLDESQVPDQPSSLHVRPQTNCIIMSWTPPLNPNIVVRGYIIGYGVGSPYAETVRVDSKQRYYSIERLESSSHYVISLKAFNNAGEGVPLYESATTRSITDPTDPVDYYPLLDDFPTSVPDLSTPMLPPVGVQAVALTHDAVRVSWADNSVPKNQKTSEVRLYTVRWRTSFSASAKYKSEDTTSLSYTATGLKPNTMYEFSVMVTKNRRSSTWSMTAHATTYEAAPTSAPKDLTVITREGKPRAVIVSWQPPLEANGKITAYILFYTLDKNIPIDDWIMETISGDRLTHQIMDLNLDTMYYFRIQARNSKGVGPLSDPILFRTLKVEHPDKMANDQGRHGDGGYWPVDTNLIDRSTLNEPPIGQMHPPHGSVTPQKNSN
Briefly: ELISA on coated DCC-His. How it is done:
(§1) Recombinant purified ECDs (50-150 ng) of each putative target protein were coated, incubated with 150 ng of the indicated primary antibody, and binding was detected using a peroxidase-conjugated anti-human Fab secondary antibody. Heatmap represents averages of technical triplicates. (8B) Target validation via siRNA knockdown. H929 cells were transfected with siRNA pools targeting the putative antibody targets ICAM1, CADM1, and PTPRG. Cells were then subjected to cognate IgG binding analysis via flow cytometry. (NT, non-targeting siRNA).
(§2) ELISA ELISA was conducted as described previously. Briefly, 50-150 ng of antigen was coated overnight in half-area 96-well plates at 4° C., blocked with 3% BSA at 37° C. for 1 h, and 150 ng of chimeric rabbit/human IgG1 was added, incubating for 2 h at 37° C. […] After incubating at 37° C. for 15 min-1 h (depending on intensity of controls), data were acquired using a SpectraMax M5 plate reader (Molecular Devices).

The target in assay [2] is T1, DCC. Briefly: ELISA on coated DCC-His, 150 ng IgG1; None 0.095. On the procedure: as §1, §2
In assay [3] the target is T2, GARS-His (Sino Biological) (human, UniProt P41250 37-739, limits assumed).
T2 construct: Bought; also called GARS1; glycyl-tRNA synthetase; not shown: His tag of the bought protein
T2 sequence: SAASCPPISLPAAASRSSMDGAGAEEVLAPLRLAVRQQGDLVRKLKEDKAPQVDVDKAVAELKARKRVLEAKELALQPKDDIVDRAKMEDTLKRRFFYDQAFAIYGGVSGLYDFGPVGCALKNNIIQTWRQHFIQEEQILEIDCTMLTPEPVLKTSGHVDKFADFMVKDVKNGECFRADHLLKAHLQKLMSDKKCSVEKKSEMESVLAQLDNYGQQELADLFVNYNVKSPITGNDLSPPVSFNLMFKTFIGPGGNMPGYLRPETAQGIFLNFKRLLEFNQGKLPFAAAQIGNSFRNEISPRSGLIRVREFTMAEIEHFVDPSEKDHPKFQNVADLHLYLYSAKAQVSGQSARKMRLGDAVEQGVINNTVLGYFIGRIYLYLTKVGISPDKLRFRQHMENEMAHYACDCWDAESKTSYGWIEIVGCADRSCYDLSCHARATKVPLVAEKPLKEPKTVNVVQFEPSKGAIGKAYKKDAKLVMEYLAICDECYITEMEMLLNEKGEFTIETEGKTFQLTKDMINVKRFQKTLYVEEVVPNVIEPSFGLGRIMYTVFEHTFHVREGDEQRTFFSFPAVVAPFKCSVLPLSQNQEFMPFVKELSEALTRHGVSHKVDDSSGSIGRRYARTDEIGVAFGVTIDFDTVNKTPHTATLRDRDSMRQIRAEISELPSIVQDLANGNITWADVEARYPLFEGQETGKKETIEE
Briefly: ELISA on coated GARS-His, 150 ng IgG1; None 0.099. How it is done: as §1, §2

The target in the next assay is T3, IL13RA1.
T3 construct: coated protein in the ELISA; also called IL13RA1-Fc-His (R&D Systems)
T3 chain: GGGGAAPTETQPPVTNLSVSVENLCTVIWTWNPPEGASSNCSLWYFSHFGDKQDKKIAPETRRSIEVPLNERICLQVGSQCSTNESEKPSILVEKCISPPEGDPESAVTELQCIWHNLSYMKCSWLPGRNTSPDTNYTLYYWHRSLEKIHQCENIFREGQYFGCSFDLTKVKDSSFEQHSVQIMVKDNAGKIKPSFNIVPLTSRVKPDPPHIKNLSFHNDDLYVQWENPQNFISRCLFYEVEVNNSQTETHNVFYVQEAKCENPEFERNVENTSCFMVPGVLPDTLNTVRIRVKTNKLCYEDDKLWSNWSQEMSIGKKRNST
Kind of assay: ELISA on coated IL13RA1-Fc-His, 150 ng IgG1; None 0.094. On the procedure:
as §1, §2

B1: HW-81 chimeric rabbit-human IgG1 LA/LA/PG (antibody, V domains shown)
VH: QKQLVESGGGLVTPGGTLTLTCTVSGFSLSSNGVSWVRQAPGKGLEYIGLIRSIGSTYYATWAKGRFTISKTSTTVDLKITSPTTEDTATYFCARGGYRNGFKLWGPGTLVTVSS
VL: QPVLTQSPSVSAALGASAKLTCTLSSAHKTYYIEWYQQQHPGKAPRYLMQLQSDGSYTKGTGVPDRFSGSSSGADRYLIISSVQAEDEADYICGVIDSAVYVFGGGTQLTVTG
notes: Fc-silenced (L234A/L235A/P329G) IgG1, lambda; Alexa Fluor 647-labeled in single-step flow cytometry; Cluster C-45
Regarding B1, in the assay with DCC [1], the binding result is “no binding (tested: 150 ng IgG1 per well)”. Also, the “ELISA Absorbance (405 nm-570 nm)” value in the assay with DCC [2] was determined as 0.068; in assay [3], 0.641; with IL13RA1 it was 0.099.

B2: HW-8 chimeric rabbit-human IgG1 LA/LA/PG (antibody, V domains shown)
VH: QSLEESGGRLVTPGTPLTLTCTVSGFSLSSYAMSWVRQAPGKGLEWIGAISTGGSTTYASWAKGRFTISKTSSTTVDLKMTSLTTEDTATYFCVRHFRLWGPGTLVTISS
VL: QVLTQTPSSVSAAVGGTVTIKCQASQSIGSALAWFQQKPGQRPKLLIYRASNLASGVPSRFKGSGSGTEFALTISGVQREDAATYYCLGGAAAVWAFGAGTNVEIKR
notes: Fc-silenced (L234A/L235A/P329G) IgG1, kappa; Alexa Fluor 647-labeled in single-step flow cytometry; Cluster C-45
Regarding B2, the binding result with DCC [1] is recorded as “no binding (tested: 150 ng IgG1 per well)”. Also, the “ELISA Absorbance (405 nm-570 nm)” value turned out to be 0.074 in the assay with DCC [2], 0.081 in assay [3] and 0.077 with IL13RA1.

B3: HW-97 chimeric rabbit-human IgG1 LA/LA/PG (antibody, V domains shown)
VH: QKQLVESGGRLVTPGTPLTLTCTVTGIDLSSHGMSWVRQAPGKGLEWIGVIYPSGSTWYASWARGRFTISKTSTTVDLKMTSLTTEDTATHFCARGDVGGADNNIWGPGTLVTVSS
VL: SFVLTQPASVQVDLGQTVSLTCTAETLSRSYASWYQQKPGQAPVLLIYRDTSRPSGVPDRFSGSSSGNTATLTISGAQAGDEADYYCATSDGSGSSYQYVFGGGTQLTVTG
notes: Fc-silenced (L234A/L235A/P329G) IgG1, lambda; Alexa Fluor 647-labeled in single-step flow cytometry; Prototype of cluster C-97
Turning to B3, the binding result in the assay with DCC [1] is “no binding (tested: 150 ng IgG1 per well)”. The results for the “ELISA Absorbance (405 nm-570 nm)” value (with DCC [2]; in assay [3]; with IL13RA1) were 0.065, 0.079 and 0.08, respectively.

B4: HW-113 chimeric rabbit-human IgG1 LA/LA/PG (antibody, V domains shown)
VH: QKQLVESGGGLVQPGGSLTLTCTVSGFSLNKYYMGWFRQAPGKGLEWIGVISRSGDTYYSSWAKGRFTISKASTTVDLRITSPTTEDTATYFCARDASSPGFHGDRLDLWGQGTLVTVSS
VL: SFVLTQPASVQVNLGQTVSLTCTADTLSRSYASWYQQKPGQAPVLLIYRDTSRPSGVPDRFSGSSSGNTATLTISGAQAGDEADYYCATSDGIGSNYLWVFGGGTQLTVTG
notes: Fc-silenced (L234A/L235A/P329G) IgG1, lambda; Alexa Fluor 647-labeled in single-step flow cytometry
On to B4, for which the binding result with DCC [1] is listed as “no binding (tested: 150 ng IgG1 per well)”. Moreover, the entries for the “ELISA Absorbance (405 nm-570 nm)” value (in the assay with DCC [2]; in assay [3]; with IL13RA1) were 0.072, 0.088 and 0.086, respectively.

B5: HW-101 chimeric rabbit-human IgG1 LA/LA/PG (antibody, V domains shown)
VH: QEQLVESGGRLVTPGTPLTLTCKASGFSLGKYDMSWVRQAPGKGLEWIGTIYAGSGSTWYASWAKGRFTISKTSTTVDLKMTSLTTEDTATYFCARDFLGVNSIWGPGTLVTISS
VL: SFVLTQPASVQVNLGQTVSLTCTADTLSRSYASWYQQKPDQAPVLLIHRDTSRPSGVPDRFSGSNSGNTATLTISGAQAGDEADYYCATSDGSGSNFHFVFGGGTQLTVTG
notes: Fc-silenced (L234A/L235A/P329G) IgG1, lambda; Alexa Fluor 647-labeled in single-step flow cytometry; Cluster C-97
As to B5, in the assay with DCC [1], the binding result is “no binding (tested: 150 ng IgG1 per well)”. For the same molecule, the results for the “ELISA Absorbance (405 nm-570 nm)” value (with DCC [2]; in assay [3]; with IL13RA1) were 0.057, 0.093 and 0.067, respectively.

B6: HW-56 chimeric rabbit-human IgG1 LA/LA/PG (antibody, V domains shown)
VH: QSVKESEGGLFKPTDTLTLTCTASGFTVSTNAVTWVRQAPGNGLEYIGTIGRSGSAYFASWAKRRSTLTRDINLNTVTLKMTSLTAADTATYFCVRGSPGYRTAISIWGPGTLVTISS
VL: AVMTQTPSSTSAAVEGTVTINCQASQSISNRLSWFQQKPGQPPKLLIYQASTLASGVPSRFKGSGSGTEFTLTISGVQREDAATYYCLGSYSSSDASFGGGTKLEIKR
notes: as for B2
For B6, the binding result with DCC [1] was “no binding (tested: 150 ng IgG1 per well)”. For the same molecule, the “ELISA Absorbance (405 nm-570 nm)” value with DCC [2] worked out at 0.088; in assay [3], 0.651; with IL13RA1, 0.16.
